These results are taken from the supplement of paper PMC7125110.

B1: glmS ribozyme (parent)
chain: AUAAAAGCGCCAGAACUACAGAAAUGUAGUUGACGAGGAGGAGGUUUAUCGAAUUUUCGGCGGAUGCCUCCAAA

± gives the standard error. For part of these data: This sample holds only a part of the variants without activity.

What all share (details): with glucosamine-6-phosphate
In series [1] the parent is B1. Briefly: kcat; higher = faster cleavage; RNA array. In outline: (§1)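 In situ transcription by E. coli RNA polymerase produced barcoded ribozyme variants on sequenced MiSeq chips, and a hybridised Cy3 probe tracked them at 37 °C. Glucosamine-6-phosphate was flowed in at 40 μM to 10 mM in HEPES/KCl/Mg(OAc)2 buffer. kcat and KM were taken from weighted Michaelis–Menten fits of kobs values from exponential decay fits.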

Variants of B1 are the subject of series [2]. Briefly: KM; higher = weaker cofactor use; RNA array. In outline:
as §1

In series [3] the parent is B1. Briefly: self-cleavage kobs at 40 uM GlcN6P; higher = faster cleavage; RNA array. In a few lines:
as §1

In series [4] the parent is B1. Briefly: self-cleavage kobs at 160 uM GlcN6P; higher = faster cleavage; RNA array. In a few lines: as §1
The variants in series [5] derive from B1. The experiment in a line: self-cleavage kobs at 640 uM GlcN6P; higher = faster cleavage; RNA array. In a few lines: as §1
The variants in series [6] derive from B1. Briefly: self-cleavage kobs at 2500 uM GlcN6P; higher = faster cleavage; RNA array. In a few lines: as §1
Variants of B1 are the subject of series [7]. The experiment in a line: self-cleavage kobs at 10000 uM GlcN6P; higher = faster cleavage; RNA array. In outline:
as §1

On to AUAAAAGCGCCAGAACUACAGAAAUGUAAUUAACGAGGAGGAGGUUUAUCGAAUUUUCGGCGGAUGCCUCCAAA [G29A G32A], for which, in the series with glucosamine-6-phosphate [1], the kcat (as a rule, the maximal rate divided by the concentration of active sites) came out at 0.00111 ± 7.1e-05 s⁻¹. Also, the KM (commonly the substrate concentration at which the rate is half of its maximum) in the series with glucosamine-6-phosphate [2] came to 2000 ± 220 µM. For the same variant, in the series with glucosamine-6-phosphate [3], the “self-cleavage kobs at 40 uM GlcN6P” value is 2.33e-05 ± 8.5e-06 s⁻¹. Further, the “self-cleavage kobs at 160 uM GlcN6P” value with glucosamine-6-phosphate [4] amounted to 8.75e-05 ± 1.7e-05 s⁻¹. The “self-cleavage kobs at 640 uM GlcN6P” value with glucosamine-6-phosphate [5] came to 0.000239 ± 6.2e-05 s⁻¹. In the series with glucosamine-6-phosphate [6], the “self-cleavage kobs at 2500 uM GlcN6P” value stood at 0.000588 ± 0.00013 s⁻¹. The “self-cleavage kobs at 10000 uM GlcN6P” value with glucosamine-6-phosphate [7] worked out at 0.000945 ± 0.00013 s⁻¹.
With AUAAAAGCGCCAGAACUACAGAAAUGUAGUUGACGAGGAGAAGGUUUAUCGAAGUUUCGGCGGAUGCCUCCAAA [G41A U54G], in the series with glucosamine-6-phosphate [1], the turnover number (kcat) came out at 0.000873 ± 0.00013 s⁻¹. The Michaelis-Menten constant (KM) with glucosamine-6-phosphate [2] turned out to be 336 ± 90 µM. Further, in the series with glucosamine-6-phosphate [3], the “self-cleavage kobs at 40 uM GlcN6P” value was 9.13e-05 ± 1.9e-05 s⁻¹. Besides, the “self-cleavage kobs at 640 uM GlcN6P” value with glucosamine-6-phosphate [5] worked out at 0.00057 ± 0.00021 s⁻¹. The “self-cleavage kobs at 2500 uM GlcN6P” value with glucosamine-6-phosphate [6] stood at 0.000898 ± 0.00016 s⁻¹. In addition, in the series with glucosamine-6-phosphate [7], the “self-cleavage kobs at 10000 uM GlcN6P” value is 0.000661 ± 0.00021 s⁻¹.
AUAAAAGCGCCAGAACUACAGAAAUGUAGUUGACGAGGUGGAGGUUCAUCGAAUUUUCGGCGGAUGCCUCCAAA [A39U U47C]: in the series with glucosamine-6-phosphate [1], the catalytic constant (kcat) worked out at 0.00869 ± 0.002 s⁻¹. The KM with glucosamine-6-phosphate [2] is 1870 ± 580 µM. The “self-cleavage kobs at 40 uM GlcN6P” value with glucosamine-6-phosphate [3] came to 0.000213 ± 4.3e-05 s⁻¹. For the same variant, in the series with glucosamine-6-phosphate [4], the “self-cleavage kobs at 160 uM GlcN6P” value was found to be 0.000748 ± 0.0002 s⁻¹. The “self-cleavage kobs at 640 uM GlcN6P” value with glucosamine-6-phosphate [5] worked out at 0.00198 ± 0.00032 s⁻¹. Also, the “self-cleavage kobs at 2500 uM GlcN6P” value with glucosamine-6-phosphate [6] is 0.00471 ± 0.00098 s⁻¹. The “self-cleavage kobs at 10000 uM GlcN6P” value with glucosamine-6-phosphate [7] was determined as 0.00934 ± 0.0026 s⁻¹.
With AUAAAAGCGCCAGAACUACAGAAAUGUAGUUAACGAGGAGGAGGUUUAUCGAAUUUUCGGCGGAGGCCUCCAAA [G32A U65G], the catalytic constant (kcat) with glucosamine-6-phosphate [1] came out at 0.000643 ± 0.00019 s⁻¹. In the series with glucosamine-6-phosphate [2], the KM stood at 7620 ± 3800 µM. In addition, in the series with glucosamine-6-phosphate [5], the “self-cleavage kobs at 640 uM GlcN6P” value worked out at 7.49e-05 ± 2.1e-05 s⁻¹. In addition, the “self-cleavage kobs at 2500 uM GlcN6P” value with glucosamine-6-phosphate [6] amounted to 0.000139 ± 2.7e-05 s⁻¹. Moreover, the “self-cleavage kobs at 10000 uM GlcN6P” value in the series with glucosamine-6-phosphate [7] turned out to be 0.000374 ± 5e-05 s⁻¹.
Turning to AUAAAAGCGCCAGAACUACAGAAAUGUAGUUGACGAGGAGGGGGUUUAUCGAUUUUUCGGCGGAUGCCUCCAAA [A42G A53U], the kcat in the series with glucosamine-6-phosphate [1] is 0.0339 ± 0.012 s⁻¹. In addition, the Michaelis-Menten constant (KM) with glucosamine-6-phosphate [2] was 2240 ± 990 µM. The “self-cleavage kobs at 40 uM GlcN6P” value with glucosamine-6-phosphate [3] worked out at 0.000764 ± 0.00011 s⁻¹. The “self-cleavage kobs at 160 uM GlcN6P” value in the series with glucosamine-6-phosphate [4] amounted to 0.00186 ± 0.00035 s⁻¹. In addition, the “self-cleavage kobs at 640 uM GlcN6P” value with glucosamine-6-phosphate [5] amounted to 0.0076 ± 0.0013 s⁻¹. Further, in the series with glucosamine-6-phosphate [6], the “self-cleavage kobs at 2500 uM GlcN6P” value turned out to be 0.0159 ± 0.0028 s⁻¹. In addition, the “self-cleavage kobs at 10000 uM GlcN6P” value in the series with glucosamine-6-phosphate [7] was 0.0373 ± 0.009 s⁻¹.
Take AUAAAAGCGCCAGAACUACAGAAAUGUAGUUGACGAGGACGAGGUUUAUCGAAUUUUCGGCGGAUGCCUCUAAA [G40C C71U]: in the series with glucosamine-6-phosphate [1], the kcat was determined as 0.00477 ± 0.0015 s⁻¹. In addition, in the series with glucosamine-6-phosphate [2], the KM stood at 1730 ± 780 µM. In addition, in the series with glucosamine-6-phosphate [3], the “self-cleavage kobs at 40 uM GlcN6P” value turned out to be 0.000198 ± 2.6e-05 s⁻¹. Further, in the series with glucosamine-6-phosphate [4], the “self-cleavage kobs at 160 uM GlcN6P” value stood at 0.000335 ± 4.3e-05 s⁻¹. Further, the “self-cleavage kobs at 640 uM GlcN6P” value with glucosamine-6-phosphate [5] stood at 0.00124 ± 0.00014 s⁻¹. Besides, in the series with glucosamine-6-phosphate [6], the “self-cleavage kobs at 2500 uM GlcN6P” value came to 0.00328 ± 0.00041 s⁻¹. Besides, the “self-cleavage kobs at 10000 uM GlcN6P” value in the series with glucosamine-6-phosphate [7] came out at 0.00384 ± 0.00053 s⁻¹.
